{"source": "paper PMC2935386", "about": "“Dissecting the Relation between a Nuclear Receptor and GATA: Binding Affinity Studies of Thyroid Hormone Receptor and GATA2 on TSHβ Promoter”", "key": {"[1]": {"target": "T1, TRβ1 DBD-LBD (TR DL, TRβ1ΔAB) (human, UniProt P10828 102-461)", "T1 sequence": "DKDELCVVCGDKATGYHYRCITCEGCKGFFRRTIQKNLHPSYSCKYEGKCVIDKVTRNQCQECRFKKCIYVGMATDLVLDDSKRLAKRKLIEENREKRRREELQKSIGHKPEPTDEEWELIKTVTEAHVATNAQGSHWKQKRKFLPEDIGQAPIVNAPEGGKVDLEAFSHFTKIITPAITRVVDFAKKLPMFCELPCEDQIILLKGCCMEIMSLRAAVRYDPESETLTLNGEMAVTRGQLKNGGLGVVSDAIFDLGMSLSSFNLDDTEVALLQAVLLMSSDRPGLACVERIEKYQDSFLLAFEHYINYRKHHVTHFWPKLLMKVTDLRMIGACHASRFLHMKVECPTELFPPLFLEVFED", "experiment": "fluorescence anisotropy; no T3; Hill n 3.5±0.1; Fluorescence anisotropy: 10 nM DNA, 20 mM Hepes pH 8.0, 50 mM NaCl, 1 mM MgCl2, 3 mM DTT, 5% glycerol, 10°C; agarose gel 1.3% in 0.5x TBE", "settings": "protein: recombinant; tags: His (pET28a); chain copies: 2; label: 5' fluorescein (FITC) on forward strand; blunt"}, "[2]": {"target": "T2, TRβ1 DBD (TRβ1ΔAB/EF) (human, UniProt P10828 102-198)", "T2 sequence": "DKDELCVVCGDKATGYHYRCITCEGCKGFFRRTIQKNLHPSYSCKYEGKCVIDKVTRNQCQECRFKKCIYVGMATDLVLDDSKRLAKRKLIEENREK", "experiment": "gel filtration + agarose EMSA; 100 uM protein; DNA label not stated; Fluorescence anisotropy: 10 nM DNA, 20 mM Hepes pH 8.0, 50 mM NaCl, 1 mM MgCl2, 3 mM DTT, 5% glycerol, 10°C; agarose gel 1.3% in 0.5x TBE", "settings": "protein: recombinant; tags: His (pET28a); label: 5' fluorescein (FITC) on forward strand; blunt"}, "[3]": {"target": "T1, TRβ1 DBD-LBD (TR DL, TRβ1ΔAB)", "experiment": "fluorescence anisotropy; no T3; up to 10000 nM; Fluorescence anisotropy: 10 nM DNA, 20 mM Hepes pH 8.0, 50 mM NaCl, 1 mM MgCl2, 3 mM DTT, 5% glycerol, 10°C; agarose gel 1.3% in 0.5x TBE", "settings": "protein: recombinant; tags: His (pET28a); chain copies: 2; label: 5' fluorescein (FITC) on forward strand; blunt"}, "[4]": {"target": "T3, GATA2-Zf (UniProt P23769 291-412)", "T3 sequence (P23769 291-412)": "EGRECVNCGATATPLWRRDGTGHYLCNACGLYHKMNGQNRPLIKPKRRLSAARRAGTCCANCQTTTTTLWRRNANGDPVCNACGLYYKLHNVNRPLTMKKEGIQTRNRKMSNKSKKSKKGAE", "experiment": "fluorescence anisotropy; Hill n 3.1±0.4; Fluorescence anisotropy: 10 nM DNA, 20 mM Hepes pH 8.0, 50 mM NaCl, 1 mM MgCl2, 3 mM DTT, 5% glycerol, 10°C; agarose gel 1.3% in 0.5x TBE", "settings": "protein: recombinant; tags: His, thrombin treated; label: 5' fluorescein (FITC) on forward strand; blunt"}, "[5]": {"target": "T3, GATA2-Zf", "experiment": "fluorescence anisotropy; Hill n 1.3±0.4; Fluorescence anisotropy: 10 nM DNA, 20 mM Hepes pH 8.0, 50 mM NaCl, 1 mM MgCl2, 3 mM DTT, 5% glycerol, 10°C; agarose gel 1.3% in 0.5x TBE", "settings": "protein: recombinant; tags: His, thrombin treated; label: 5' fluorescein (FITC) on forward strand; blunt"}, "[6]": {"target": "T1, TRβ1 DBD-LBD (TR DL, TRβ1ΔAB)", "experiment": "fluorescence anisotropy; T3; Hill n 2±0.4; Fluorescence anisotropy: 10 nM DNA, 20 mM Hepes pH 8.0, 50 mM NaCl, 1 mM MgCl2, 3 mM DTT, 5% glycerol, 10°C; agarose gel 1.3% in 0.5x TBE", "settings": "protein: recombinant; tags: His (pET28a); chain copies: 2; label: 5' fluorescein (FITC) on forward strand; blunt"}, "[7]": {"target": "T1, TRβ1 DBD-LBD (TR DL, TRβ1ΔAB)", "experiment": "fluorescence anisotropy; no T3; Hill n 1±0.1; Fluorescence anisotropy: 10 nM DNA, 20 mM Hepes pH 8.0, 50 mM NaCl, 1 mM MgCl2, 3 mM DTT, 5% glycerol, 10°C; agarose gel 1.3% in 0.5x TBE", "settings": "protein: recombinant; tags: His (pET28a); chain copies: 2; label: 5' fluorescein (FITC) on forward strand; blunt"}}, "data": [{"binder": "TSH NRE (dsDNA) DNA 1: TGGGTCACCACAGCATCTGCTCACCAATGCAAAGT DNA 2: ACTTTGCATTGGTGAGCAGATGCTGTGGTGACCCA", "values": [{"measurement": "Kd", "setting": "[1]", "value": "316 ± 29", "unit": "nM"}]}, {"binder": "TSH GATA-RE (dsDNA) DNA 1: TCAATAGATGCTTTTCAGATAAGAA DNA 2: TTCTTATCTGAAAAGCATCTATTGA", "values": [{"measurement": "binding result", "setting": "[2]", "value": "binds"}, {"measurement": "binding result", "setting": "[3]", "value": "no binding"}, {"measurement": "Kd", "setting": "[4]", "value": "689 ± 38.7", "unit": "nM"}]}, {"binder": "GATA-RE (canonical) (dsDNA) DNA 1: CACTTGATAACAGAAAGTGATAACTCT DNA 2: AGAGTTATCACTTTCTGTTATCAAGTG", "values": [{"measurement": "Kd", "setting": "[5]", "value": "14.9 ± 1.5", "unit": "nM"}, {"measurement": "binding result", "setting": "[3]", "value": "no binding"}]}, {"binder": "DR4 TRE (dsDNA) DNA 1: AGTTCAGGTCACAGGAGGTCAGAG DNA 2: CTCTGACCTCCTGTGACCTGAACT", "values": [{"measurement": "Kd", "setting": "[6]", "value": "1980 ± 295", "unit": "nM"}, {"measurement": "Kd", "setting": "[7]", "value": "2040 ± 266", "unit": "nM"}]}]}
